Biological target: Ab42 oligomers (formed during the in vitro aggregation reaction of Ab42)
Experiment: time-course indirect ELISA on samples of the Ab42 aggregation reaction

Ab42 oligomers (formed during the in vitro aggregation reaction of Ab42), sequence (peptide, as listed by the source): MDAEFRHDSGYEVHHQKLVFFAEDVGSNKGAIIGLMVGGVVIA

B1: DesAb-O (VHH)
VHH: EVQLVESGGGLVQPGGSLRLSCAASGFNIKDTYIGWVRRAPGKGEEWVASIYPTNGYTRYADSVKGRFTISADTSKNTAYLQMNSLRAEDTAVYYCAAGSESAFGRAEEEAAAWGQGTLVTVSS
fold of ELISA absorbance at 1 hour of incubation over the initial time of aggregation: 3 fold
